Laboratory results taken from the Human Domainome abundance scans (Beltran et al. 2025).
± gives the uncertainty stated by the source.

B1: Neutrophil cytosol factor 2, residues 456 to 514; numbered along this chain, P19878 (parent)
chain: LKKGSQVEALFSYEATQPEDLEFQEGDIILVLSKVNEEWLEGECKGKVGIFPKVFVEDC

Variants of: B1
Assay: abundance fitness (aPCA) (normalised: wild type 0, dead -1); higher = more abundant; growth selection in yeast, the domain comes from the species named
Conditions: Homo sapiens

| Variant | abundance fitness |
| --- | --- |
| LKKGSQVEALFSYEATQPEDLEFQEGDIIYVLSKVNEEWLEGECKGKVGIFPKVFVEDC | 0.079 ± 0.094 |
| LKKGSQVEALFSYEATQPEDLEFQEGDIIRVLSKVNEEWLEGECKGKVGIFPKVFVEDC | 0.552 ± 0.07 |
| LKKGSQVEALFSYEATQPEDLEFQEGDIIMVLSKVNEEWLEGECKGKVGIFPKVFVEDC | 0.08 ± 0.17 |
| LKKGSQVEALFSYEATQPEDLEFQEGDIIKVLSKVNEEWLEGECKGKVGIFPKVFVEDC | 0.491 ± 0.17 |
| LKKGSQVEALFSYEATQPEDLEFQEGDIINVLSKVNEEWLEGECKGKVGIFPKVFVEDC | 0.756 ± 0.083 |
| LKKGSQVEALFSYEATQPEDLEFQEGDIIFVLSKVNEEWLEGECKGKVGIFPKVFVEDC | -0.147 ± 0.1 |
| LKKGSQVEALFSYEATQPEDLEFQEGDIIVVLSKVNEEWLEGECKGKVGIFPKVFVEDC | -0.07 ± 0.095 |
| LKKGSQVEALFSYEATQPEDLEFQEGDIIGVLSKVNEEWLEGECKGKVGIFPKVFVEDC | -0.2 ± 0.097 |
| LKKGSQVEALFSYEATQPEDLEFQEGDIIPVLSKVNEEWLEGECKGKVGIFPKVFVEDC | 0.04 ± 0.23 |
| LKKGSQVEALFSYEATQPEDLEFQEGDIIQVLSKVNEEWLEGECKGKVGIFPKVFVEDC | 0.5 ± 0.16 |
| LKKGSQVEALFSYEATQPEDLEFQEGDIIWVLSKVNEEWLEGECKGKVGIFPKVFVEDC | -0.513 ± 0.33 |
| LKKGSQVEALFSYEATQPEDLEFQEGDIIAVLSKVNEEWLEGECKGKVGIFPKVFVEDC | -0.284 ± 0.13 |
| LKKGSQVEALFSYEATQPEDLEFQEGDIISVLSKVNEEWLEGECKGKVGIFPKVFVEDC | 0.469 ± 0.068 |
| LKKGSQVEALFSYEATQPEDLEFQEGDIIDVLSKVNEEWLEGECKGKVGIFPKVFVEDC | 0.169 ± 0.11 |
| LKKGSQVEALFSYEATQPEDLEFQEGDIIEVLSKVNEEWLEGECKGKVGIFPKVFVEDC | 0.042 ± 0.31 |
| LKKGSQVEALFSYEATQPEDLEFQEGDIIHVLSKVNEEWLEGECKGKVGIFPKVFVEDC | 0.448 ± 0.12 |
| LKKGSQVEALFSYEATQPEDLEFQEGDIILVLFKVNEEWLEGECKGKVGIFPKVFVEDC | -0.291 ± 0.13 |
| LKKGSQVEALFSYEATQPEDLEFQEGDIILVLEKVNEEWLEGECKGKVGIFPKVFVEDC | -0.786 ± 0.28 |
| LKKGSQVEALFSYEATQPEDLEFQEGDIILVLTKVNEEWLEGECKGKVGIFPKVFVEDC | -0.289 ± 0.18 |
| LKKGSQVEALFSYEATQPEDLEFQEGDIILVLNKVNEEWLEGECKGKVGIFPKVFVEDC | 0.147 ± 0.089 |
| LKKGSQVEALFSYEATQPEDLEFQEGDIILVLKKVNEEWLEGECKGKVGIFPKVFVEDC | 0.213 ± 0.17 |
| LKKGSQVEALFSYEATQPEDLEFQEGDIILVLCKVNEEWLEGECKGKVGIFPKVFVEDC | -0.474 ± 0.13 |
| LKKGSQVEALFSYEATQPEDLEFQEGDIILVLPKVNEEWLEGECKGKVGIFPKVFVEDC | -0.554 ± 0.2 |

| Variant | abundance fitness |
| --- | --- |
| LKKGSQVEALFSYEATQPEDLEFQEGDIILVLGKVNEEWLEGECKGKVGIFPKVFVEDC | 0.378 ± 0.069 |
| LKKGSQVEALFSYEATQPEDLEFQEGDIILVLVKVNEEWLEGECKGKVGIFPKVFVEDC | -0.091 ± 0.081 |
| LKKGSQVEALFSYEATQPEDLEFQEGDIILVLDKVNEEWLEGECKGKVGIFPKVFVEDC | 0.4 ± 0.072 |
| LKKGSQVEALFSYEATQPEDLEFQEGDIILVLRKVNEEWLEGECKGKVGIFPKVFVEDC | 0.59 ± 0.077 |
| LKKGSQVEALFSYEATQPEDLEFQEGDIILVLWKVNEEWLEGECKGKVGIFPKVFVEDC | -0.366 ± 0.2 |
| LKKGSQVEALFSYEATQPEDLEFQEGDIILVLMKVNEEWLEGECKGKVGIFPKVFVEDC | -0.677 ± 0.41 |
| LKKGSQVEALFSYEATQPEDLEFQEGDIILVLIKVNEEWLEGECKGKVGIFPKVFVEDC | -0.34 ± 0.15 |
| LKKGSQVEALFSYEATQPEDLEFQEGDIILVLYKVNEEWLEGECKGKVGIFPKVFVEDC | -0.55 ± 0.15 |
| LKKGSQVEALFSYEATQPEDLEFQEGDIILVLHKVNEEWLEGECKGKVGIFPKVFVEDC | -0.596 ± 0.18 |
| LKKGSQVEALFSYEATQPEDLEFQEGDIILVLQKVNEEWLEGECKGKVGIFPKVFVEDC | -0.111 ± 0.27 |
| LKKGSQVEALFSYEATQPEDLEFQEGDITLVLSKVNEEWLEGECKGKVGIFPKVFVEDC | -0.497 ± 0.16 |
| LKKGSQVEALFSYEATQPEDLEFQEGDIGLVLSKVNEEWLEGECKGKVGIFPKVFVEDC | -0.365 ± 0.1 |
| LKKGSQVEALFSYEATQPEDLEFQEGDIMLVLSKVNEEWLEGECKGKVGIFPKVFVEDC | -0.686 ± 0.26 |
| LKKGSQVEALFSYEATQPEDLEFQEGDIPLVLSKVNEEWLEGECKGKVGIFPKVFVEDC | 0.271 ± 0.19 |
| LKKGSQVEALFSYEATQPEDLEFQEGDIWLVLSKVNEEWLEGECKGKVGIFPKVFVEDC | 0.005 ± 0.16 |
| LKKGSQVEALFSYEATQPEDLEFQEGDILLVLSKVNEEWLEGECKGKVGIFPKVFVEDC | -0.454 ± 0.12 |
| LKKGSQVEALFSYEATQPEDLEFQEGDINLVLSKVNEEWLEGECKGKVGIFPKVFVEDC | -0.119 ± 0.11 |
| LKKGSQVEALFSYEATQPEDLEFQEGDIHLVLSKVNEEWLEGECKGKVGIFPKVFVEDC | -0.595 ± 0.17 |
| LKKGSQVEALFSYEATQPEDLEFQEGDISLVLSKVNEEWLEGECKGKVGIFPKVFVEDC | -0.374 ± 0.11 |
| LKKGSQVEALFSYEATQPEDLEFQEGDIRLVLSKVNEEWLEGECKGKVGIFPKVFVEDC | -0.427 ± 0.13 |
| LKKGSQVEALFSYEATQPEDLEFQEGDIVLVLSKVNEEWLEGECKGKVGIFPKVFVEDC | -0.795 ± 0.17 |
| LKKGSQVEALFSYEATQPEDLEFQEGDIQLVLSKVNEEWLEGECKGKVGIFPKVFVEDC | -0.783 ± 0.38 |
